The values that follow come from patent US20140072613A1, “Compositions and Methods for Treating Cutaneous Scarring” (priority 2012, published 2014).

Common to all, as to assay: biochemical
Assay type in all cases: biochemical

The target of assay [1] is 266 human kinases (Homo sapiens, UniProt P54764). The settings on record: EphA4(h); 100 μM. In short, it runs like this:
(§1)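 Radiometric filter-binding format: a positively charged substrate takes up radiolabelled phosphate from ATP unless the kinase is inhibited, then is captured on a negatively charged filter membrane. Counts from scintillation are expressed relative to a 100% activity control.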

In assay [2] the target is 266 human kinases (Homo sapiens, UniProt Q9UM73). The conditions noted are these: ALK(h); 100 μM. In short, it runs like this: as §1
Assay [3] addresses T1, 266 human kinases (Homo sapiens, UniProt P42681).
T1 sequence (P42681 1-527): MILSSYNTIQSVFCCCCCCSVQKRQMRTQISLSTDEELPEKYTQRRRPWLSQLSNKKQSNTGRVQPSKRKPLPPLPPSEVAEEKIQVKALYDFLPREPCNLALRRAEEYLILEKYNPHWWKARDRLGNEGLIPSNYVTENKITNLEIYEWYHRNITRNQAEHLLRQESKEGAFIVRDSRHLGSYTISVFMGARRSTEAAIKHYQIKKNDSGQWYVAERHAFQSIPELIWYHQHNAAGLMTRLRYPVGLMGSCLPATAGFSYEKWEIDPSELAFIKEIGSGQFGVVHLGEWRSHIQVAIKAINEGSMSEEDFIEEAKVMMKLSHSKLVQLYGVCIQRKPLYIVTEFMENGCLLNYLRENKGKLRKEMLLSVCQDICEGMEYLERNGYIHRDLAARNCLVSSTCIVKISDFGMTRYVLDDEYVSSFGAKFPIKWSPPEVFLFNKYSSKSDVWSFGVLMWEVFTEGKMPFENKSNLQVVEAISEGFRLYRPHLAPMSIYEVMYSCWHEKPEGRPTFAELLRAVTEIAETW
The conditions noted are these: Txk(h); 100 μM. In short, it runs like this: as §1

For assay [4], the target named is 266 human kinases (Homo sapiens, UniProt P11362). The conditions noted are these: FGFR1(h); 100 μM. The essentials: as §1
266 human kinases (Homo sapiens, UniProt P11362), sequence (P11362 22-822): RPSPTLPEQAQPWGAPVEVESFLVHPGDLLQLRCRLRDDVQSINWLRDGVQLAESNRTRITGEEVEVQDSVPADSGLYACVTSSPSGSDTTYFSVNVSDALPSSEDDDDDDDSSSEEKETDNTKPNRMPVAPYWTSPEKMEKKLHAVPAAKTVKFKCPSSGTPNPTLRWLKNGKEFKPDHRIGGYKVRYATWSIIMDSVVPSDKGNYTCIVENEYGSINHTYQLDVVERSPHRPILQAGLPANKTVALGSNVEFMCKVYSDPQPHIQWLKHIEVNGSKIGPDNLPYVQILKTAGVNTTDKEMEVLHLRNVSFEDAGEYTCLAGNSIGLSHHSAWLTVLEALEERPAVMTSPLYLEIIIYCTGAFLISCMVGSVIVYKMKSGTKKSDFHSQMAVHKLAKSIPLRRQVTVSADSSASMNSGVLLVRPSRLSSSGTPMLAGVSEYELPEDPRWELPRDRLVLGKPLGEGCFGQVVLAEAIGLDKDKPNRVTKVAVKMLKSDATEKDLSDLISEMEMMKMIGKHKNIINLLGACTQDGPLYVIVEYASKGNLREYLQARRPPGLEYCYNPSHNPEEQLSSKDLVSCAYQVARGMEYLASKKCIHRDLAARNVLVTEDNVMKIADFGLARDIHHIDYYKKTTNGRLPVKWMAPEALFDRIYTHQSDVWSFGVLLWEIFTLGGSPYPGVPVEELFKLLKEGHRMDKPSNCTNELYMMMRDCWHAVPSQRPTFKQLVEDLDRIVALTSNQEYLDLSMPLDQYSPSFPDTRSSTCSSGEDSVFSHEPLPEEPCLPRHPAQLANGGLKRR
The target in assay [5] is 266 human kinases (Homo sapiens, UniProt Q13043). The settings on record: MST1(h); 100 μM. The essentials:
as §1

In assay [6] the target is 266 human kinases (Homo sapiens, UniProt O75676). The conditions noted are these: MSK2(h); 100 μM. The essentials: as §1
In assay [7] the target is 266 human kinases (Homo sapiens, UniProt Q15303). The conditions noted are these: ErbB4(h); 100 μM. In short, it runs like this: as §1
The target of assay [8] is 266 human kinases (Homo sapiens, UniProt P08631). The conditions noted are these: 100 μM. In short, it runs like this:
as §1

For assay [9], the target named is 266 human kinases (Homo sapiens, UniProt Q06187). The settings on record: BTK(h); 100 μM. In short, it runs like this: as §1
266 human kinases (Homo sapiens, UniProt Q06187), sequence (Q06187 whole entry): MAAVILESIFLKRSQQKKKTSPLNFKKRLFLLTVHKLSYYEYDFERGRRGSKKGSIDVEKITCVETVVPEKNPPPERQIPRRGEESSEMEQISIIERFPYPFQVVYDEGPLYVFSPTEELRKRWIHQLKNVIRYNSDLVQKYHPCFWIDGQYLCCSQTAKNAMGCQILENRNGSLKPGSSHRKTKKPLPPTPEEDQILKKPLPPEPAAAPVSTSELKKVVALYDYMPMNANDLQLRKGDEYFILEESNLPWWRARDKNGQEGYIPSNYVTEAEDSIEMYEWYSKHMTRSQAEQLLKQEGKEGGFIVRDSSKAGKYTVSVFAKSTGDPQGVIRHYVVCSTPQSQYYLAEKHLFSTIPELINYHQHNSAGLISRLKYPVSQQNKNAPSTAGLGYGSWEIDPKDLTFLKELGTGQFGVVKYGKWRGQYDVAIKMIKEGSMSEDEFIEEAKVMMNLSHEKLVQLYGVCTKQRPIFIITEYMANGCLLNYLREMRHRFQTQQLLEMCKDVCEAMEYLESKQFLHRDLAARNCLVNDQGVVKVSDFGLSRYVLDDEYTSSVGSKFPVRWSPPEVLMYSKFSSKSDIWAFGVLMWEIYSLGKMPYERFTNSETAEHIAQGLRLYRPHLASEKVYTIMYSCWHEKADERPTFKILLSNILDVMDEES
The target in assay [10] is 266 human kinases (Homo sapiens, UniProt P52564). The settings on record: MKK6(h); 100 μM. In short, it runs like this: as §1
266 human kinases (Homo sapiens, UniProt P52564), sequence (P52564 whole entry): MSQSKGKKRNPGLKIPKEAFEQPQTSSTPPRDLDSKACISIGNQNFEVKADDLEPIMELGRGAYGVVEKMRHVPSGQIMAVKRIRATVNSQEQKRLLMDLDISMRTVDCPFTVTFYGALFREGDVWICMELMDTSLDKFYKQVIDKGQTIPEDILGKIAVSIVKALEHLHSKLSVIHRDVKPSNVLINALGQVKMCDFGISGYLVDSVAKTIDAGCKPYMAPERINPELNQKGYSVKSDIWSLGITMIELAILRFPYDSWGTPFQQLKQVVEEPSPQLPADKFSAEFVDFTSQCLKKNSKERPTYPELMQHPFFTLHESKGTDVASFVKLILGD
Assay [11] deals with T2, 266 human kinases (Homo sapiens, UniProt Q99683).
T2 sequence (Q99683 1-1374): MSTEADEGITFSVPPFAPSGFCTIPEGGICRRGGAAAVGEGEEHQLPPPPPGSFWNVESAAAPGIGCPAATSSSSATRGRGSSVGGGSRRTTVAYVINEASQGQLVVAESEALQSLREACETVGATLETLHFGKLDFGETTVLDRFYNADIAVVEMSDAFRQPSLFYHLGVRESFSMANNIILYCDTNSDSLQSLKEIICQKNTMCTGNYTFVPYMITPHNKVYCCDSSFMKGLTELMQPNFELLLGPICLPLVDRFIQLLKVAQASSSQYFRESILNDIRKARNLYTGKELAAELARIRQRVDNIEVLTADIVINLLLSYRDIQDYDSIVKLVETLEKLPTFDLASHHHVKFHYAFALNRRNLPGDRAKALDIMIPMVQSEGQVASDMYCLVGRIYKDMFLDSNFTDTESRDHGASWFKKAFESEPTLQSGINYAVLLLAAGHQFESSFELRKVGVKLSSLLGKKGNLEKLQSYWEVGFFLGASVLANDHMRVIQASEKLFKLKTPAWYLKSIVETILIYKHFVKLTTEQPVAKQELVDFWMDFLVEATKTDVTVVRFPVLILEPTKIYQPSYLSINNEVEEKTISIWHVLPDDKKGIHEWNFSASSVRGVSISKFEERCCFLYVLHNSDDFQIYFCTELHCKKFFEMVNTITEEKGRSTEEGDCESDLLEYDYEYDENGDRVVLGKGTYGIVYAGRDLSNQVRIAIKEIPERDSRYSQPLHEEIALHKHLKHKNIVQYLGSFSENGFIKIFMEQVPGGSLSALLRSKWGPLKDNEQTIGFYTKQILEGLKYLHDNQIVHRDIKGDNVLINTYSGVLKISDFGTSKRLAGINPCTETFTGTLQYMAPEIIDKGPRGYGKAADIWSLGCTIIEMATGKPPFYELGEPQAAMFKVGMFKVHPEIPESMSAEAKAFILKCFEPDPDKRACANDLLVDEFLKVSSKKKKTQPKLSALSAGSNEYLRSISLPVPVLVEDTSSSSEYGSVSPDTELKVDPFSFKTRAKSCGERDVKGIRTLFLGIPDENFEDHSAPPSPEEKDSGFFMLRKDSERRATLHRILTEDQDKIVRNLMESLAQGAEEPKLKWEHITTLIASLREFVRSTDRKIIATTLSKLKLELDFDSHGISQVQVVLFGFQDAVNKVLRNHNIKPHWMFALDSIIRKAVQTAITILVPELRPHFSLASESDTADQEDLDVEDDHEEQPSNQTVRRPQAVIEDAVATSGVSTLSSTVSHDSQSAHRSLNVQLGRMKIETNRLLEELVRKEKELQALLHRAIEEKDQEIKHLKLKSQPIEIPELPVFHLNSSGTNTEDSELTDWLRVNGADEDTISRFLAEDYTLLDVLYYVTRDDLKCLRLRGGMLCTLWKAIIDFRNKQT
The settings on record: ASK1(h); 100 μM. The essentials: as §1

For assay [12], the target named is 266 human kinases (Homo sapiens, UniProt P31749). The settings on record: PKBα(h); 100 μM. The essentials: as §1
In assay [13] the target is 266 human kinases (Homo sapiens, UniProt P42684). The conditions noted are these: Arg(h); 100 μM. The essentials:
as §1

266 human kinases (Homo sapiens, UniProt P08631), sequence (P08631 whole entry): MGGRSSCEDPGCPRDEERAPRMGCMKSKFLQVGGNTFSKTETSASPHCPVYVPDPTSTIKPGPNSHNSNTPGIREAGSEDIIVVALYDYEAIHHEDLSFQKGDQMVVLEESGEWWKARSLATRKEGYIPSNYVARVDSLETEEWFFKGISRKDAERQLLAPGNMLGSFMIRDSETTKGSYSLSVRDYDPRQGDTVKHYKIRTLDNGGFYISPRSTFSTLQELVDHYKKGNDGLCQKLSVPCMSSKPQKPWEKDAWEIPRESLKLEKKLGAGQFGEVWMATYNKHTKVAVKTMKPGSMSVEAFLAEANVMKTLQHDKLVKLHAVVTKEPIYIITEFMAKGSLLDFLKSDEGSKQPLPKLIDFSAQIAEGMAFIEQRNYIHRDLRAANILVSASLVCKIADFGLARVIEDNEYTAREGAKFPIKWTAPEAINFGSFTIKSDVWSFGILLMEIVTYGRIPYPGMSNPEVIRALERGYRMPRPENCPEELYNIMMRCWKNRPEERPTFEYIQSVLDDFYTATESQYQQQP
266 human kinases (Homo sapiens, UniProt Q13043), sequence (Q13043 whole entry): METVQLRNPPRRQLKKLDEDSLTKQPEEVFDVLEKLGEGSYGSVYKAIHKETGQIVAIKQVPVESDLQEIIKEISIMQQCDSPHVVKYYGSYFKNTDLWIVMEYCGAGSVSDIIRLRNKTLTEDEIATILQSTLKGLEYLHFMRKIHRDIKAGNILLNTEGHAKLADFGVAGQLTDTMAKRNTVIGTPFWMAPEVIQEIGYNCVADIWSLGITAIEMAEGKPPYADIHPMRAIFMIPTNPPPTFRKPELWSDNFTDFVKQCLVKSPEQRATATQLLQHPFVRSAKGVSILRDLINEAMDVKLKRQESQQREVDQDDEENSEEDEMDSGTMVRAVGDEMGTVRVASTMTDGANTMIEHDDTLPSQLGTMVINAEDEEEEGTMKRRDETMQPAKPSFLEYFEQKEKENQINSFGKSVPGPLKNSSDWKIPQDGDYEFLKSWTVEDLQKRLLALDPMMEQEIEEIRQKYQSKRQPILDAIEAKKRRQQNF
266 human kinases (Homo sapiens, UniProt P54764), sequence (P54764 20-986): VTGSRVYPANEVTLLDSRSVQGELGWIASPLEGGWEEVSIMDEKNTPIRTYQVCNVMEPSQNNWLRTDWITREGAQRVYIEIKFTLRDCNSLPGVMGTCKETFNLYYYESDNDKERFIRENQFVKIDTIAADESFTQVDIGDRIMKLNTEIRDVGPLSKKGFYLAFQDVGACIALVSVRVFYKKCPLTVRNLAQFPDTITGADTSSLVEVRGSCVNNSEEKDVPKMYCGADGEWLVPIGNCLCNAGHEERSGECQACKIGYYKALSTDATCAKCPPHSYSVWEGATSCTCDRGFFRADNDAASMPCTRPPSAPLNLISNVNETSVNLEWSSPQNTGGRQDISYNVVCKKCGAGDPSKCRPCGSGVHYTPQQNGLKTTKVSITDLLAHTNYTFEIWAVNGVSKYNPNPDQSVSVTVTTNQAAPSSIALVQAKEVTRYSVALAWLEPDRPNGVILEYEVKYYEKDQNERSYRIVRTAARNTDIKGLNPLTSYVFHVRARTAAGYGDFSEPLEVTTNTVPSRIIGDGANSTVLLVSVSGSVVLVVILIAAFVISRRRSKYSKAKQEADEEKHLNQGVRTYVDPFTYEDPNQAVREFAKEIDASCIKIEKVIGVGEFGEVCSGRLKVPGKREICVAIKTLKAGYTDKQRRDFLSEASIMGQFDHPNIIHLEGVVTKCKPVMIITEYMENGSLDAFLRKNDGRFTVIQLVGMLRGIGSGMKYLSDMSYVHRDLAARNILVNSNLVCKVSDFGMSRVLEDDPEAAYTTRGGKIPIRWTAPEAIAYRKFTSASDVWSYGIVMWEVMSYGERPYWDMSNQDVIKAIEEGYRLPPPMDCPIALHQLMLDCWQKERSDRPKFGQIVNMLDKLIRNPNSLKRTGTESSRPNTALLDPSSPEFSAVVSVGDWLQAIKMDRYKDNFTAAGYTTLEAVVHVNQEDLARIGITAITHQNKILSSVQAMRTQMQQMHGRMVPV
266 human kinases (Homo sapiens, UniProt P42684), sequence (P42684 whole entry): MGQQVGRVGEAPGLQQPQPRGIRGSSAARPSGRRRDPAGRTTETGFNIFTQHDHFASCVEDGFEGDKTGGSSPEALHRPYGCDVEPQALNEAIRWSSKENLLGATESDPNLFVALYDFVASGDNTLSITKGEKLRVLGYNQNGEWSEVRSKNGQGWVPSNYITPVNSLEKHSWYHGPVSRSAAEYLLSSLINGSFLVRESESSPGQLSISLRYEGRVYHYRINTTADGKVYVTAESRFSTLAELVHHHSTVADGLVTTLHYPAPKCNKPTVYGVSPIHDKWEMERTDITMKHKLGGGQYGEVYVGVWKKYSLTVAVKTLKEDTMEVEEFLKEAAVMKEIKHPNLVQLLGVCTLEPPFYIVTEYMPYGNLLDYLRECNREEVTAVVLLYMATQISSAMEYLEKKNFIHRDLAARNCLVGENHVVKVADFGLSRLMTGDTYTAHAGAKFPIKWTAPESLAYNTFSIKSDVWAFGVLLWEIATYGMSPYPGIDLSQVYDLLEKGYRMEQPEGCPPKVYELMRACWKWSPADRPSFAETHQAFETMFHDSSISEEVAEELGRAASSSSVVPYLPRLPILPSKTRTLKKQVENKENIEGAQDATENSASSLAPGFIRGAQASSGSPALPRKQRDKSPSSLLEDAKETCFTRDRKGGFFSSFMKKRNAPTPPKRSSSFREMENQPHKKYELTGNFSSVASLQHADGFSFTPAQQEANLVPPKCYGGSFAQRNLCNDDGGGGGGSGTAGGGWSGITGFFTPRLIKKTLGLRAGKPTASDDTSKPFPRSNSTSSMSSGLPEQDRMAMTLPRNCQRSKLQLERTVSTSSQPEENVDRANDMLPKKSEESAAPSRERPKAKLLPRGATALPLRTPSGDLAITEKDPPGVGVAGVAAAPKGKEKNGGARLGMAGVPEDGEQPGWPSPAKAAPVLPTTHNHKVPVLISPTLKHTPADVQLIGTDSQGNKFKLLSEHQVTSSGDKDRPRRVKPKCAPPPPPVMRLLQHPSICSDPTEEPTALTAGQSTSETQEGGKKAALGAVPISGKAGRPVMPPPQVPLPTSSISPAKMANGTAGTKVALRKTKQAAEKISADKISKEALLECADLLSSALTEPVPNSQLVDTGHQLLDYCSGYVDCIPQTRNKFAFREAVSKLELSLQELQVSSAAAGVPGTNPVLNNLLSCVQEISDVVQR

Turning to “HRRIKAWLKKIKALARQLGVAA (mammal) [MMI-0500]”, the “% activity” value in the assay with 266 human kinases [1] is recorded as 48%; in the assay with 266 human kinases [2], 12%; in the assay with 266 human kinases [3] it was 10%; in the assay with 266 human kinases [4], 18%; with 266 human kinases [5], 3%; in the assay with 266 human kinases [6] it was 14%. Also, the “% activity” value with 266 human kinases [7] is on record as 2%; with 266 human kinases [8] (Hck(h) activated), 67%; with 266 human kinases [8] (Hck(h)), 78%; in the assay with 266 human kinases [9], 18%; in the assay with 266 human kinases [10] it was 18%; in the assay with 266 human kinases [11], −4%. In addition, the “% activity” value with 266 human kinases [12] was 30%; with 266 human kinases [13] it was 22%.

“YARAAARQARAKALNRQLGVA (mammal) [MMI-0200]”: the “% activity” value in the assay with 266 human kinases [1] turned out to be 127%; in the assay with 266 human kinases [2] it was 95%; in the assay with 266 human kinases [3] it was 98%; in the assay with 266 human kinases [4] it was 97%; with 266 human kinases [5] it was 72%; with 266 human kinases [6], 88%. In addition, the “% activity” value came to 82% with 266 human kinases [7]; 100% with 266 human kinases [8] (Hck(h) activated); 100% with 266 human kinases [9]; 98% with 266 human kinases [10]; 101% in the assay with 266 human kinases [11]; 110% with 266 human kinases [12]. Besides, in the assay with 266 human kinases [13], the “% activity” value amounted to 82%.
